Patent US20120121506A1 (PHILOGEN S P A, published 2012)

Target: T1, Extra Domain-A (ED-A) isoform of fibronectin in bone marrow biopsies of AML patients (human, UniProt P02751 1722-1811, limits assumed)
T1 construct: The antigen was not used as an isolated protein; It is the native protein in patient tissue sections; also called A-FN; EDA domain of fibronectin
Assay: immunohistochemistry, bone marrow biopsies of two patients with extramedullary AML, biotinylated SIP 2 ug/ml
Description: For immunohistochemistry, biotinylated antibodies were used in small immunoprotein format (SIP) under identical conditions (2 μg/ml). Aliquots were prepared from a single batch of antibodies, frozen and used only once to ensure reproducibility of immunohistochemical stainings. Frozen tissue samples were stored at −80° C. Sections of 10 μm thickness were fixed in chilled acetone, rehydrated in TBS buffer (50 mM Tris, 100 mM NaCl, 0.001% Aprotinin, pH 7.4) and blocked with 20% fetal calf serum in TBS. The antibodies were added onto the sections in a final concentration of 2 μg/mL in 3% bovine serum albumin (BSA)/TBS solution and incubated for one hour. After washing in TBS, bound antibodies were detected with streptavidin-biotinylated alkaline phosphatase complex (Biospa, Milan, Italy) in TBS 3% BSA+2 mM MgCl₂. The Fast Red substrate (Sigma) was used for detection of phosphatase activity. Sections were counterstained with Gill's hematoxylin No. 2 (Sigma) and mounted with Glycergel mounting medium (Dako, Glostrup, Denmark).

T1 sequence (P02751 1722-1811 limits assumed): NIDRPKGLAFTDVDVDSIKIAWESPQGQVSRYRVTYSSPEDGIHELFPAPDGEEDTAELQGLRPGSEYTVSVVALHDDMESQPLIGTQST

binding result: binds
B1: F8-SIP (V5L/K18R) (antibody)
chain: EVQLLESGGGLVQPGGSLRLSCAASGFTFSLFTMSWVRQAPGKGLEWVSAISGSGGSTYYADSVKGRFTISRDNSKNTLYLQMNSLRAEDTAVYYCAKSTHLYLFDYWGQGTLVTVSSGGGGSGGGSGGGGGEIVLTQSPGTLSLSPGERATLSCRASQSVSMPFLAWYQQKPGQAPRLLIYGASSRATGIPDRFSGSGSGTDFTLTISRLEPEDFAVYYCQQMRGRPPTFGQGTKVEIKSGGSGGPRAAPEVYAFATPEWPGSRDKRTLACLIQNFMPEDISVQWLHNEVQLPDARHSTTQPRKTKGSGFFVFSRLEVTRAEWEQKDEFICRAVHEAASPSQTVQRAVSVNPESSRRGGC
modifications: biotinylated (sites not given)
notes: Human monoclonal mini-immunoglobulin (small immunoprotein, SIP); It was used biotinylated at 2 ug/ml on tissue sections; also called F8 (V5L/K18R)
